Reference: PMC9482650, “Quantitative fragmentomics allow affinity mapping of interactomes” (Nature Communications, 2022)

What was measured:
Assay in all cases: holdup assay
Settings in all cases: plain residues with an end cap or a label only (N-terminal biotin on a linker: (peg)3)
[1] = target: T1, PDZD8, Q8NEN9
T1 sequence (Q8NEN9 361-459, limits assumed, looked up): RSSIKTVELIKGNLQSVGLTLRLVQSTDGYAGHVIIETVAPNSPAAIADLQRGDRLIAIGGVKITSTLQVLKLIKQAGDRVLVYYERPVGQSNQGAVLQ

[2] = target: T2, PDZD2_5, O15018
T2 sequence (O15018 2617-2716, limits assumed, looked up): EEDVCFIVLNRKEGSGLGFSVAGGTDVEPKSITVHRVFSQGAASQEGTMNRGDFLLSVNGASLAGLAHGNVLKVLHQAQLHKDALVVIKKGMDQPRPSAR

[3] = target: T3, PREX2_2, Q70Z35
T3 sequence (Q70Z35 672-764, limits assumed, looked up): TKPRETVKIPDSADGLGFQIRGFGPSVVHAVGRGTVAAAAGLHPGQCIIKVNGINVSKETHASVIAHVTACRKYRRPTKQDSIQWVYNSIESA

[4] = target: T4, MPP1, Q00013
T4 sequence (Q00013 66-162, limits assumed, looked up): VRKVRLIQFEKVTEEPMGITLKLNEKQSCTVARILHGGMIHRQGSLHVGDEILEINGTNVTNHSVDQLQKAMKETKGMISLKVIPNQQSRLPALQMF

[5] = target: T5, NHERF3_2, Q5T2W1
T5 sequence (Q5T2W1 129-225, limits assumed, looked up): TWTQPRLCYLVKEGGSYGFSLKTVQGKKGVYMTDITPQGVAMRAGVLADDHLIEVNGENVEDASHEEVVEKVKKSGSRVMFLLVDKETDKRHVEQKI

[6] = target: MAGI3_5, Q5TCQ9
[7] = target: DLG5_2, Q8TDM6
[8] = target: DLG2_1, Q15700
[9] = target: MAGI1_3, Q96QZ7
[10] = target: PTPN13_2, Q12923
[11] = target: T6, MPP5, Q8N3R9
T6 sequence (Q8N3R9 251-346, limits assumed, looked up): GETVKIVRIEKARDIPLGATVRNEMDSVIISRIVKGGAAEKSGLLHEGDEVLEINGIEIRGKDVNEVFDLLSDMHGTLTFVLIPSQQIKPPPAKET

[12] = target: T7, PDLIM3, Q53GG5
T7 sequence (Q53GG5 1-94, limits assumed, looked up): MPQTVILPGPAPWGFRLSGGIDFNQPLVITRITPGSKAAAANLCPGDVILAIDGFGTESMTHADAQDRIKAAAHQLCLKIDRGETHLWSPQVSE

[13] = target: T8, LNX2_1, Q8N448
T8 sequence (Q8N448 228-328, limits assumed, looked up): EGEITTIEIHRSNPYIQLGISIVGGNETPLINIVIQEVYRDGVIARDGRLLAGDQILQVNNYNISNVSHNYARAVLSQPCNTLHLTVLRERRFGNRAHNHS

[14] = target: MAGI1_4, Q96QZ7
[15] = target: T9, MPDZ_3, O75970
T9 sequence (O75970 372-473, limits assumed, looked up): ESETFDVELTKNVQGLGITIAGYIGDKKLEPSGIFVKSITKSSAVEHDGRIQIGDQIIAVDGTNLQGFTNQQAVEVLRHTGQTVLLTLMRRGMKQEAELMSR

[16] = target: T10, MPDZ_7, O75970
T10 sequence (O75970 1146-1253, limits assumed, looked up): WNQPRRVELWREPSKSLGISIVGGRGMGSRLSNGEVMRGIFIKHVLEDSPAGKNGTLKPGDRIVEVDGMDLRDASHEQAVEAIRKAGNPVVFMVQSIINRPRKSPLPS

[17] = target: T11, APBA3_2, O96018
T11 sequence (O96018 480-570, limits assumed, looked up): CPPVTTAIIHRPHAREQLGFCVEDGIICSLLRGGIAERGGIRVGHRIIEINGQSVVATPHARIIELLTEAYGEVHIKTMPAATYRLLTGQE

[18] = target: T12, USH1C_1, Q9Y6N9
T12 sequence (Q9Y6N9 82-179, limits assumed, looked up): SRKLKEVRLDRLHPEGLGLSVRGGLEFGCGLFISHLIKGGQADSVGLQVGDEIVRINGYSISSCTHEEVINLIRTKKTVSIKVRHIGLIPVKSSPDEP

[19] = target: T13, PARD6G, Q9BYG4
T13 sequence (Q9BYG4 153-261, limits assumed, looked up): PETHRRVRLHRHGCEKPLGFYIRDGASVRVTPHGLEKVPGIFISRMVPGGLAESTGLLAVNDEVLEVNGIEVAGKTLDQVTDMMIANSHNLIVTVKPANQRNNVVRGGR

[20] = target: T14, PDZD2_3, O15018
T14 sequence (O15018 581-682, limits assumed, looked up): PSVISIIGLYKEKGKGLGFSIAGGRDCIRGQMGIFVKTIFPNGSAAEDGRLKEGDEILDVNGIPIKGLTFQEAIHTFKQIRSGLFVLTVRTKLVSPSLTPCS

[21] = target: T15, MPDZ_13, O75970
T15 sequence (O75970 1982-2070, limits assumed, looked up): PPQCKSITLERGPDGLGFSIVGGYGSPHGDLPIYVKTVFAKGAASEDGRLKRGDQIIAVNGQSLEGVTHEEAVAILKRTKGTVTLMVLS

Measured: pKd

Chain of DLG5_2, Q8TDM6 (Q8TDM6 714-800): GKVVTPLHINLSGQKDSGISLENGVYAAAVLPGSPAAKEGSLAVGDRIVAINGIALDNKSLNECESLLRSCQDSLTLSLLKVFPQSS
Chain of MAGI1_3, Q96QZ7 (Q96QZ7 638-725): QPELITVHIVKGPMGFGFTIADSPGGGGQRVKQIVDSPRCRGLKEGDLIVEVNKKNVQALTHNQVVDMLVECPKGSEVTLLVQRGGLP
Chain of MAGI3_5, Q5TCQ9 (Q5TCQ9 847-941): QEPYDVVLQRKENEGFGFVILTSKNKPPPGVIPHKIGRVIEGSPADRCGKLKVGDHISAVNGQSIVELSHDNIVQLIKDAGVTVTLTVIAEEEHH
Chain of MAGI1_4, Q96QZ7 (Q96QZ7 other isoform, or with tags, fused parts or gaps): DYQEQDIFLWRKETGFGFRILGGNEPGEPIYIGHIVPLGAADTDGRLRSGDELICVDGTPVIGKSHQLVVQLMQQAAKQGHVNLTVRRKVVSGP
Chain of PTPN13_2, Q12923 (Q12923 1363-1462): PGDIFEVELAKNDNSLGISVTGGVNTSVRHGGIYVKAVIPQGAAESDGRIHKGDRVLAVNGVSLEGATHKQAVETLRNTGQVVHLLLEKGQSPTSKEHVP

NLNSSEGVPDLLV [SARS-CoV-E, P59637]
below the threshold: all assays above
